# Test results from article PMC12381214 (2025).
# B1: human Izumo1 ectodomain E71A (Izumo1E71A-His10-SpyTag-LPETGG) (domain or fragment)
# chain: CVICDPSVVLALKSLEKDYLPGHLDAKHHKAMMERVENAVKDFQELSLNADAYMGVVDEATLQKGSWSLLKDLKRITDSDVKGDLFVKELFWMLHLQKETFATYVARFQKEAYCPNKCGVMLQTLIWCKNCKKEVHACRKSYDCGERNVEVPQMEDMILDCELNWHQASEGLTDYSFYRVWGNNTETLVSKGKEATLTKPMVGPEDAGSYRCELGSVNSSPATIINFHVTVLP
# modifications: glycosylated (sites not given); SpyTag joined by an isopeptide bond to a SpyCatcher polyprotein
# B2: human Izumo1 ectodomain R160A (Izumo1R160A-His10-SpyTag-LPETGG) (domain or fragment)
# chain: CVICDPSVVLALKSLEKDYLPGHLDAKHHKAMMERVENAVKDFQELSLNEDAYMGVVDEATLQKGSWSLLKDLKRITDSDVKGDLFVKELFWMLHLQKETFATYVARFQKEAYCPNKCGVMLQTLIWCKNCKKEVHACAKSYDCGERNVEVPQMEDMILDCELNWHQASEGLTDYSFYRVWGNNTETLVSKGKEATLTKPMVGPEDAGSYRCELGSVNSSPATIINFHVTVLP
# modifications: glycosylated (sites not given); SpyTag joined by an isopeptide bond to a SpyCatcher polyprotein
# B3: human Izumo1 ectodomain H157A (Izumo1H157A-His10-SpyTag-LPETGG) (domain or fragment)
# chain: CVICDPSVVLALKSLEKDYLPGHLDAKHHKAMMERVENAVKDFQELSLNEDAYMGVVDEATLQKGSWSLLKDLKRITDSDVKGDLFVKELFWMLHLQKETFATYVARFQKEAYCPNKCGVMLQTLIWCKNCKKEVAACRKSYDCGERNVEVPQMEDMILDCELNWHQASEGLTDYSFYRVWGNNTETLVSKGKEATLTKPMVGPEDAGSYRCELGSVNSSPATIINFHVTVLP
# modifications: glycosylated (sites not given); SpyTag joined by an isopeptide bond to a SpyCatcher polyprotein
# Molecular target: human Juno ectodomain, wild type (Juno-His10-SpyTag-LPETGG) (human, glycosylated (sites not given); SpyTag joined by an isopeptide bond to a SpyCatcher polyprotein)
# Sequence (chain, as listed by the source): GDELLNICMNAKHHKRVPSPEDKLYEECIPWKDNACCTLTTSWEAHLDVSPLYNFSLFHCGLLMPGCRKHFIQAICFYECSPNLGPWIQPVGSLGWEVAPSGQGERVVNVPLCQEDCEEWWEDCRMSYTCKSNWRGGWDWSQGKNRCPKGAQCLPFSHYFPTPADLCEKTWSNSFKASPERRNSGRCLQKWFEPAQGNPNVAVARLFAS
# Assay: FACS
row,Binder,Kd
1,B1,43 nM
2,B2,157 nM
3,B3,243 nM
